Results as given in patent US20220220215A1 (CRESCENDO BIOLOGICS, published 2022).

B1: TPP-1245 CD137A-6GS-PDA2-6GS-HSA2 (bispecific antibody)
chain: EVQLVESGGGLVQPGGSLRLSCAASGFTLSNYWMNWVRQAPGKGLEWVANINQDGSERYYVDSVKGRFTISRDNAKNSLYLQMNSLRAEDTAVYYCARGGEGYGVDHYGLDVSGQGTTVTVSSGGGGSGGGGSGGGGSGGGGSGGGGSGGGGSEVQLVESGGGVVRPGGSLRLSCAASGFTFDDYAMSWVRQAPGKGLEWVSGITWNAGSTGYADSVKGRFTISRDNAKNSLYLQMNSLRAEDTALYYCVRDKYSYAWSYDDFDIWGQGTMVTVSSGGGGSGGGGSGGGGSGGGGSGGGGSGGGGSEVQLVESGGGLVKPGGSLRLSCAASGFTFSNYNMNWVRQAPGKGLEWVSSISSAGTHIYYADSVKGRFTISRDNAKNSLYLQMNSLRAEDTAVYYCARDPHSTGWYKDFDYWGQGTLVTVSS
B2: TPP-1010: PD138G7(G109D)-6GS-HSA2-6GS- CD137D -His (bispecific antibody)
chain: EVQLVESGGGVVRPGGSLRLSCAASGFTFDDYAMSWVRQAPGKGLEWVSGITWNGGSTGYADSVKDRFTISRDNAKNSLYLQMNSLRAEDTALYYCVRDKYSYAWSYDDFDIWGQGTMVTVSSGGGGSGGGGSGGGGSGGGGSGGGGSGGGGSEVQLVESGGGLVKPGGSLRLSCAASGFTFSNYNMNWVRQAPGKGLEWVSSISSAGTHIYYADSVKGRFTISRDNAKNSLYLQMNSLRAEDTAVYYCARDPHSTGWYKDFDYWGQGTLVTVSSGGGGSGGGGSGGGGSGGGGSGGGGSGGGGSEVQLVESGGGVVQPGGSLRLSCAASGFTFSNYGMHWVRQAPGKGLEWVAVISNDGNTKTYADSVKGRFTISRDNSKNTLYLQMNSLRAEDTAVYYCAQDETTTVTASYYFDYWGQGTLVTVSSAAAHHHHHH
notes: Single-chain VH fusion (PD-1 VH, HSA VH, CD137 VH), His tag
B3: TPP-1290 PD138G7(G109D)-6GS-CD137A-6GS-HSA2 (bispecific antibody)
chain: EVQLVESGGGVVRPGGSLRLSCAASGFTFDDYAMSWVRQAPGKGLEWVSGITWNGGSTGYADSVKDRFTISRDNAKNSLYLQMNSLRAEDTALYYCVRDKYSYAWSYDDFDIWGQGTMVTVSSGGGGSGGGGSGGGGSGGGGSGGGGSGGGGSEVQLVESGGGLVQPGGSLRLSCAASGFTLSNYWMNWVRQAPGKGLEWVANINQDGSERYYVDSVKGRFTISRDNAKNSLYLQMNSLRAEDTAVYYCARGGEGYGVDHYGLDVSGQGTTVTVSSGGGGSGGGGSGGGGSGGGGSGGGGSGGGGSEVQLVESGGGLVKPGGSLRLSCAASGFTFSNYNMNWVRQAPGKGLEWVSSISSAGTHIYYADSVKGRFTISRDNAKNSLYLQMNSLRAEDTAVYYCARDPHSTGWYKDFDYWGQGTLVTVSS
B4: TPP-1293 (PDBlocker1.92-6GS- CD137A -6GS-HSA2) (bispecific antibody)
chain: EVQLVESGGGLVKPGGSLRLSCAASGFTFSDESMTWMRQAPGKGLEWVSYISSGGGVKFYADSVKGRFTISRDNAKNSLYLQMNSLRAEDTAVYYCAREAPLRLGESPHDAFDISGQGTMVTVSSGGGGSGGGGSGGGGSGGGGSGGGGSGGGGSEVQLVESGGGLVQPGGSLRLSCAASGFTLSNYWMNWVRQAPGKGLEWVANINQDGSERYYVDSVKGRFTISRDNAKNSLYLQMNSLRAEDTAVYYCARGGEGYGVDHYGLDVSGQGTTVTVSSGGGGSGGGGSGGGGSGGGGSGGGGSGGGGSEVQLVESGGGLVKPGGSLRLSCAASGFTFSNYNMNWVRQAPGKGLEWVSSISSAGTHIYYADSVKGRFTISRDNAKNSLYLQMNSLRAEDTAVYYCARDPHSTGWYKDFDYWGQGTLVTVSS
B5: TPP-972: CD137A-6GS-PDA-6GS-HSA2-His (bispecific antibody)
chain: EVQLVESGGGLVQPGGSLRLSCAASGFTLSNYWMNWVRQAPGKGLEWVANINQDGSERYYVDSVKGRFTISRDNAKNSLYLQMNSLRAEDTAVYYCARGGEGYGVDHYGLDVSGQGTTVTVSSGGGGSGGGGSGGGGSGGGGSGGGGSGGGGSEVQLVESGGGLVQPGRSLRLSCAASGFTFDDYALHWVRQAPGKDLEWVSGISWNGGSYGYADSVKGRFTISRDNAKNSLYLQMNSLRAEDTALYYCVREKGPGLTGSTADYYGLDAWGQGTMVTVSSGGGGSGGGGSGGGGSGGGGSGGGGSGGGGSEVQLVESGGGLVKPGGSLRLSCAASGFTFSNYNMNWVRQAPGKGLEWVSSISSAGTHIYYADSVKGRFTISRDNAKNSLYLQMNSLRAEDTAVYYCARDPHSTGWYKDFDYWGQGTLVTVSSAAAHHHHHH
notes: Single-chain VH fusion (CD137 VH, PD-1 VH, HSA VH), His tag
B6: TPP-1246 CD137A-6GS-HSA2-6GS-PD138G7(G109D) (bispecific antibody)
chain: EVQLVESGGGLVQPGGSLRLSCAASGFTLSNYWMNWVRQAPGKGLEWVANINQDGSERYYVDSVKGRFTISRDNAKNSLYLQMNSLRAEDTAVYYCARGGEGYGVDHYGLDVSGQGTTVTVSSGGGGSGGGGSGGGGSGGGGSGGGGSGGGGSEVQLVESGGGLVKPGGSLRLSCAASGFTFSNYNMNWVRQAPGKGLEWVSSISSAGTHIYYADSVKGRFTISRDNAKNSLYLQMNSLRAEDTAVYYCARDPHSTGWYKDFDYWGQGTLVTVSSGGGGSGGGGSGGGGSGGGGSGGGGSGGGGSEVQLVESGGGVVRPGGSLRLSCAASGFTFDDYAMSWVRQAPGKGLEWVSGITWNGGSTGYADSVKDRFTISRDNAKNSLYLQMNSLRAEDTALYYCVRDKYSYAWSYDDFDIWGQGTMVTVSS
B7: TPP-969: PDA-6GS-HSA2-6GS-172E1-13-His (bispecific antibody)
chain: EVQLVESGGGLVQPGRSLRLSCAASGFTFDDYALHWVRQAPGKDLEWVSGISWNGGSYGYADSVKGRFTISRDNAKNSLYLQMNSLRAEDTALYYCVREKGPGLTGSTADYYGLDAWGQGTMVTVSSGGGGSGGGGSGGGGSGGGGSGGGGSGGGGSEVQLVESGGGLVKPGGSLRLSCAASGFTFSNYNMNWVRQAPGKGLEWVSSISSAGTHIYYADSVKGRFTISRDNAKNSLYLQMNSLRAEDTAVYYCARDPHSTGWYKDFDYWGQGTLVTVSSGGGGSGGGGSGGGGSGGGGSGGGGSGGGGSEVQLVESGGGVVQPGGSLRLSCAASGFTFSNYGMHWVRQAPGKGLEWVAVISNDGNTKTYADSVKGRFTISRDNSKNTLYLQMNSLRAEDTAVYYCAQDETTTVTASYYFDYWGQGTLVTVSSAAAHHHHHH
notes: as for B2
B8: TPP-973: CD137A -6GS-PDA2-6GS-HSA2-His (bispecific antibody)
chain: EVQLVESGGGLVQPGGSLRLSCAASGFTLSNYWMNWVRQAPGKGLEWVANINQDGSERYYVDSVKGRFTISRDNAKNSLYLQMNSLRAEDTAVYYCARGGEGYGVDHYGLDVSGQGTTVTVSSGGGGSGGGGSGGGGSGGGGSGGGGSGGGGSEVQLVESGGGVVRPGGSLRLSCAASGFTFDDYAMSWVRQAPGKGLEWVSGITWNAGSTGYADSVKGRFTISRDNAKNSLYLQMNSLRAEDTALYYCVRDKYSYAWSYDDFDIWGQGTMVTVSSGGGGSGGGGSGGGGSGGGGSGGGGSGGGGSEVQLVESGGGLVKPGGSLRLSCAASGFTFSNYNMNWVRQAPGKGLEWVSSISSAGTHIYYADSVKGRFTISRDNAKNSLYLQMNSLRAEDTAVYYCARDPHSTGWYKDFDYWGQGTLVTVSSAAAHHHHHH
notes: as for B5
B9: 003BB172-E01-3 (VHH)
VHH: EVQLVESGGGLVQPGGSLRLSCAASGFTFSNYGMHWVRQAPGKRLEWVAVISNDGNTKTYADSVKGRFTISRDNSKNMLYLQMNSLRTEDTAVYYCAQDETTTVTASYYFDYWGQGTLVTVSS
notes: Human VH single domain antibody, monovalent
B10: 003BB172-E01-4 (VHH)
VHH: EVQLVESGGGLVQPGGSLRLSCAASGFTFSNYGMHWVRQAPGKGLEWVAVISNDGNTKTYADSVKGRFTISRDNSKNTLYLQMTSLRTEDTAVYYCAQDETTTVTASYYFDYWGQGTLVTVSS
notes: as for B9
B11: TPP-1247 CD137A-6GS-HSA3-6GS-PD138G7(G109D) (bispecific antibody)
chain: EVQLVESGGGLVQPGGSLRLSCAASGFTLSNYWMNWVRQAPGKGLEWVANINQDGSERYYVDSVKGRFTISRDNAKNSLYLQMNSLRAEDTAVYYCARGGEGYGVDHYGLDVSGQGTTVTVSSGGGGSGGGGSGGGGSGGGGSGGGGSGGGGSEVQLLESGGGLVKPGGSLRLSCAASGFTVSSYTMNWVRQAPGKGLEWVSSISSSGRYIYYADSVKGRFTISRDNAKNSLYLQMNSLRAEDTAVYYCARDPRMVGNPHEFDIWGQGTMVTVSSGGGGSGGGGSGGGGSGGGGSGGGGSGGGGSEVQLVESGGGVVRPGGSLRLSCAASGFTFDDYAMSWVRQAPGKGLEWVSGITWNGGSTGYADSVKDRFTISRDNAKNSLYLQMNSLRAEDTALYYCVRDKYSYAWSYDDFDIWGQGTMVTVSS

Assays:
[1] = target: T1, human PD-1 expressed on CHO cells (human, UniProt Q15116 21-288); assay: flow cytometry on CHO huPD1 cells
T1 construct: also called CHO huPD1; CHO human PD1 cells

[2] = target: T2, human CD137 expressed on CHO cells (human, UniProt Q07011 18-255); assay: flow cytometry on CHO huCD137 cells
T2 construct: also called CHO huCD137; CHO human CD137 cells

[3] = target: T1, human PD-1 expressed on CHO cells; assay: FMAT/Mirrorball on CHO huPD1 cells
Outline: (§1)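 His-tagged VH molecules bound to CHO cells expressing human PD-1 or human CD137, with CHO parent cells as control, in PBS pH 7.4, 0.1% BSA, 0.05% sodium azide. Read by FMAT on Mirrorball (ex 488/640 nm); binding taken as FL2 median fluorescence intensity of FL5-gated events.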

[4] = target: T2, human CD137 expressed on CHO cells; assay: FMAT/Mirrorball on CHO huCD137 cells
Outline: as §1

[5] = target: T3, Rhesus CD137-Fc tagged protein (rhesus, UniProt H9Z8K9 24-186); assay: BLI (Octet RED384), CD137-Fc on Protein G sensor, 1:1 model
T3 construct: extracellular domain; The Octet paragraph gives no catalogue number; also called rhCD137-Fc
Procedure: (§2) Binding kinetics of purified monovalent VH molecules were measured on a ForteBio Octet RED 384 instrument. Human and Rhesus CD137-Fc tagged protein was diluted to 5 μg/ml in kinetics buffer (0.05% Tween, 1×PBS) and coupled to Protein G biosensors (ForteBio cat no. 18-5082) via the Fc tag. VH were serially diluted (typically 1:2 dilution series starting with 200 nM, VH at the highest concentration) and binding to the CD137-Fc-coupled Protein G biosensors measured. Binding kinetics were determined from the (blank subtracted) sensor gram trace using 1:1 binding models and ForteBio Octet Data Analysis 9.0 software. Example kinetic and binding affinity data obtained is shown Table 18 (monovalent VH).

[6] = target: T4, human CD137-Fc recombinant protein (Acro Biosystems 41B-H5258) (human, UniProt Q07011 24-186); assay: as above
T4 construct: Bought protein; The Octet paragraph gives no catalogue number for its human CD137-Fc; also called hCD137-Fc; CD137-Fc tagged protein
Procedure: as §2

Binder | EC50 [1] | EC50 [2] | EC50 [3] | EC50 [4] | also measured
B1 | 183 nM | 4.4 nM |  |  | 
B2 | 0.531 nM | 9.39 nM | 0.162 nM | 0.101 nM | 
B3 | 22.7 nM | 4.45 nM |  |  | 
B4 | 44.8 nM |  |  |  | 
B5 | 33 nM |  | 0.15 nM | 0.0533 nM | 
B6 | 20.5 nM | 2.48 nM |  |  | 
B7 |  | 11.6 nM | 0.142 nM | 0.171 nM | 
B8 | 108 nM | 0.595 nM | 0.481 nM | 0.0781 nM | 
B9 |  |  |  | 1.06 nM | Kd [5]: 24.8 nM; koff [5]: 0.00157 s⁻¹; kon [5]: 55300 M⁻¹ s⁻¹; Kd [6]: 24.5 nM; koff [6]: 0.00161 s⁻¹; kon [6]: 66000 M⁻¹ s⁻¹
B10 |  |  |  | 1.33 nM | Kd [5]: 32.2 nM; koff [5]: 0.00216 s⁻¹; kon [5]: 67100 M⁻¹ s⁻¹; Kd [6]: 25.7 nM; koff [6]: 0.00184 s⁻¹; kon [6]: 71600 M⁻¹ s⁻¹
B11 | 25.4 nM | 3.39 nM |  |  | 
